Assay results taken from the supplement of paper PMC7125110.
± gives the standard error. For some of these results: Variants at the floor of the assay were thinned out.

B1: glmS ribozyme (parent)
chain: AUAAAAGCGCCAGAACUACAGAAAUGUAGUUGACGAGGAGGAGGUUUAUCGAAUUUUCGGCGGAUGCCUCCAAA

Columns and labels:
Settings in all cases: with glucosamine-6-phosphate
glucosamine-6-phosphate [1] = variants of: B1; test: kcat; higher = faster cleavage; RNA array
Summary of the method: (§1)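 The measurements used barcoded ribozyme variants on sequenced MiSeq chips, transcribed in situ by E. coli RNA polymerase and tracked at 37 °C with a hybridised Cy3 probe. Glucosamine-6-phosphate, 40 μM to 10 mM in HEPES/KCl/Mg(OAc)2 buffer, was flowed in while tiles were imaged over ~14 h. Baseline-normalised signals, also normalised to non-cleaving reference variants, gave per-tile medians that were fit to one- or two-exponential decays for kobs. kcat and KM resulted from weighted Michaelis–Menten fits across concentrations.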

glucosamine-6-phosphate [2] = variants of: B1; test: self-cleavage kobs at 640 uM GlcN6P; higher = faster cleavage; RNA array
Summary of the method: as §1

glucosamine-6-phosphate [3] = variants of: B1; test: self-cleavage kobs at 2500 uM GlcN6P; higher = faster cleavage; RNA array
Summary of the method: as §1

glucosamine-6-phosphate [4] = variants of: B1; test: KM; higher = weaker cofactor use; RNA array
Summary of the method: as §1

glucosamine-6-phosphate [5] = variants of: B1; test: self-cleavage kobs at 10000 uM GlcN6P; higher = faster cleavage; RNA array
Summary of the method: as §1

glucosamine-6-phosphate [6] = variants of: B1; test: self-cleavage kobs at 40 uM GlcN6P; higher = faster cleavage; RNA array
Summary of the method: as §1

glucosamine-6-phosphate [7] = variants of: B1; test: self-cleavage kobs at 160 uM GlcN6P; higher = faster cleavage; RNA array
Summary of the method: as §1

| Variant | kcat (glucosamine-6-phosphate [1]) [s⁻¹] | self-cleavage kobs at 640 uM GlcN6P (glucosamine-6-phosphate [2]) [s⁻¹] | self-cleavage kobs at 2500 uM GlcN6P (glucosamine-6-phosphate [3]) [s⁻¹] | KM (glucosamine-6-phosphate [4]) [µM] | self-cleavage kobs at 10000 uM GlcN6P (glucosamine-6-phosphate [5]) [s⁻¹] | self-cleavage kobs at 40 uM GlcN6P (glucosamine-6-phosphate [6]) [s⁻¹] | self-cleavage kobs at 160 uM GlcN6P (glucosamine-6-phosphate [7]) [s⁻¹] |
| --- | --- | --- | --- | --- | --- | --- | --- |
| C58G C67G C70G | 5.76e-05 ± 2.6e-05 | 6.3e-05 ± 2.3e-05 | 8.09e-05 ± 3e-05 |  |  |  |  |
| U55C G59A | 0.000118 ± 2.1e-05 |  | 3.74e-05 ± 1.1e-05 | 4900 ± 1900 | 7.97e-05 ± 1.4e-05 |  |  |
| U54A U56G | 0.0107 ± 0.0029 | 0.00363 ± 0.00057 | 0.00548 ± 0.00089 | 1740 ± 650 | 0.0131 ± 0.0038 | 0.000226 ± 4.9e-05 | 0.000857 ± 0.00017 |
| A53U G60A | < 1e-05 |  |  |  |  | < 1e-05 |  |
| C61U U69A | 4.43e-05 ± 1.5e-05 | 4.2e-05 ± 1.3e-05 | 6.76e-05 ± 1.9e-05 |  |  |  | 3.86e-05 ± 1.8e-05 |
| C61U U69G | 1.8e-05 ± 3.9e-06 |  |  |  |  |  |  |
| U54G U56A G66A | 0.00395 ± 0.00074 | 0.00162 ± 0.00028 | 0.00236 ± 0.00049 | 1470 ± 370 | 0.00335 ± 0.00067 | 0.000108 ± 1.7e-05 | 0.000344 ± 5.5e-05 |
| U54G U55A C70G | 0.000128 ± 1.7e-05 | 0.000102 ± 1.5e-05 | 0.000157 ± 2.6e-05 |  | 0.000145 ± 2.6e-05 | 6.4e-05 ± 1.6e-05 |  |
| C58A C68A | 3.68e-05 ± 1.1e-05 | 5.26e-05 ± 1.6e-05 | 3.75e-05 ± 1.7e-05 |  |  |  | 4.01e-05 ± 1.7e-05 |
| C58A C68G | 3.84e-05 ± 1.3e-05 | 6.18e-05 ± 1.1e-05 | 4.14e-05 ± 1.2e-05 |  |  |  | 4.34e-05 ± 1.2e-05 |
| U54G G66U | 0.00193 ± 0.00025 | 0.000509 ± 4.8e-05 | 0.000956 ± 0.00014 | 1570 ± 340 | 0.00181 ± 0.00013 | 5.67e-05 ± 5.9e-06 | 0.000183 ± 2.7e-05 |
| U54G U69G | 7.3e-05 ± 1.5e-05 | 9.61e-05 ± 1.4e-05 | 8.77e-05 ± 1.5e-05 |  | 4.86e-05 ± 1.1e-05 | 3.86e-05 ± 1.3e-05 | 8.46e-05 ± 2.2e-05 |
| C61U C71G | < 1e-05 |  |  |  |  |  | < 1e-05 |
| U56A U65A | 0.00156 ± 0.00058 | 0.000368 ± 5.1e-05 | 0.000569 ± 9.2e-05 |  | 0.00148 ± 0.00021 | 4.51e-05 ± 1.1e-05 | 7.79e-05 ± 1.3e-05 |
| U56A U65C | 0.00025 ± 5.7e-05 | 0.000242 ± 6.3e-05 | 0.000177 ± 4.4e-05 |  | 0.000248 ± 4.7e-05 |  |  |
| U56A | 0.0171 ± 0.0053 | 0.00479 ± 0.00018 | 0.00725 ± 0.00034 | 1750 ± 650 | 0.0213 ± 0.00079 | 0.000397 ± 7.8e-06 | 0.00127 ± 7.4e-05 |
| U56G | 0.04 ± 0.003 | 0.00628 ± 0.00028 | 0.0168 ± 0.00087 | 3170 ± 310 | 0.0313 ± 0.0012 | 0.000527 ± 1.8e-05 | 0.00186 ± 0.00015 |
| U56C | 0.00571 ± 0.00066 | 0.000963 ± 2.5e-05 | 0.00743 ± 0.0032 | 3050 ± 430 | 0.00442 ± 0.00011 | 7.94e-05 ± 1.5e-06 | 0.000244 ± 8.9e-06 |
| A53U G66A | 0.0162 ± 0.0055 | 0.00327 ± 0.00068 | 0.00666 ± 0.0024 | 2370 ± 1000 | 0.0144 ± 0.0026 | 0.000372 ± 5.2e-05 | 0.000827 ± 0.00015 |
| A53U G66C | 0.000389 ± 9.5e-05 | 0.000103 ± 2.5e-05 | 0.000187 ± 4.6e-05 | 1980 ± 890 | 0.000387 ± 0.00011 |  |  |
| G60C C68A | 1.32e-05 ± 4.3e-06 |  |  |  | < 1e-05 | < 1e-05 |  |
| C58A C70U | 0.000164 ± 2.2e-05 | 6.79e-05 ± 8.4e-06 | 0.000143 ± 1.3e-05 | 718 ± 270 | 0.000145 ± 1.7e-05 |  | 3.94e-05 ± 9.4e-06 |
| A53U U54C | 0.00788 ± 0.0015 | 0.00401 ± 0.00061 | 0.00897 ± 0.0018 | 619 ± 200 | 0.00704 ± 0.001 | 0.000577 ± 7.7e-05 | 0.0012 ± 0.00025 |
| C58U C61A | 6.3e-05 ± 2.6e-05 | 0.000108 ± 3.4e-05 | 7.93e-05 ± 1.5e-05 |  |  |  | 6.42e-05 ± 1.7e-05 |
| U55C U65C | 0.000217 ± 5e-05 | 7.31e-05 ± 1.1e-05 | 0.00011 ± 1.9e-05 |  | 0.000217 ± 3.1e-05 |  |  |
| U54G U65C | 0.00111 ± 0.0001 | 0.000211 ± 3.4e-05 | 0.000567 ± 9.8e-05 | 2390 ± 350 | 0.00091 ± 0.00012 |  | 7.61e-05 ± 1.2e-05 |
| U56A U69A | 9.71e-05 ± 1.6e-05 | 8.46e-05 ± 1.2e-05 | 0.000155 ± 2.3e-05 |  | 8.66e-05 ± 1.1e-05 | 4e-05 ± 1.1e-05 | 5e-05 ± 1.3e-05 |
| C61G U69G | 1.73e-05 ± 4.8e-06 |  |  |  |  |  |  |
| U54G C58U | 0.000129 ± 7.5e-06 |  | 3.75e-05 ± 1.2e-05 | 6130 ± 820 | 7.98e-05 ± 9.4e-06 |  |  |
| U54G C58A | 0.000823 ± 5.9e-05 | 0.00015 ± 2.9e-05 | 0.000361 ± 0.00012 | 2870 ± 360 | 0.000646 ± 0.00011 |  |  |
